The test system of the assay is 47× CAG RNA. Description: In vitro RNA phase separation/gelation assay (fluorescence micrographs, index of dispersion). Format: biochemical. The following applies: proteinase K 60 U/mL, DNase I 200 U/mL, RNaseA 0.7 U/mL; 10 minutes, room temperature. On the procedure:
For phase separation/gelation assays, RNAs were diluted to concentrations of 0.5 ng/μL to 0.5 μg/μL in 10 mM Tris pH 7.0, 10 mM MgCl2, 25 mM NaCl buffer, unless indicated otherwise. Nuclease-free buffer stocks were purchased from Ambion. RNA was denatured at 95° C. for 3 minutes and cooled down at 1-4° C. per minute to 37° C. final temperature in a thermocycler and imaged immediately. Samples were visualized using a custom spinning disk confocal microscope (Nikon Ti-Eclipse equipped with a Yokogawa CSU-X spinning disk module) using a×100, 1.49 numerical aperture oil immersion objective and an air-cooled EM-CCD (electron multiplying charge-coupled device). The extent of phase separation/gelation was quantified by the index of dispersion (σ^2/μ) of fluorescence intensity per pixel (pixel size 83 nm×83 nm). Briefly, variance in the fluorescence intensity per image was determined, and normalized to the mean fluorescence intensity in the solution phase of the RNA. For dilute solution (<10% of imaging area occupied with clusters), this parameter reports the extent of inhomogeneity in the sample. At least 20 independent imaging areas (about 1,800 μm^2 each) were analyzed for each condition to achieve a representative measure across the sample. Each datum point in the bar graphs represents one imaging area. […]

B1: RNase A: ribonuclease enzyme (protein, UniProt P61823 27-150, looked up)
Ribonuclease pancreatic: KETAAAKFERQHMDSSTSAASSSNYCNQMMKSRNLTKDRCKPVNTFVHESLADVQAVCSQKNVACKNGQTNCYQSYSTMSITDCRETGSSKYPNCAYKTTQANKHIIVACEGNPYVPVHFDASV
Consider B1, for which the “dissolution of 47× CAG RNA clusters by enzyme treatment” value is “dissolved”.

B2: proteinase K: protease enzyme (protein, UniProt P06873 106-384, looked up)
Proteinase K: AAQTNAPWGLARISSTSPGTSTYYYDESAGQGSCVYVIDTGIEASHPEFEGRAQMVKTYYYSSRDGNGHGTHCAGTVGSRTYGVAKKTQLFGVKVLDDNGSGQYSTIIAGMDFVASDKNNRNCPKGVVASLSLGGGYSSSVNSAAARLQSSGVMVAVAAGNNNADARNYSPASEPSVCTVGASDRYDRRSSFSNYGSVLDIFGPGTSILSTWIGGSTRSISGTSMATPHVAGLAAYLMTLGKTTAASACRYIADTANKGDLSNIPFGTVNLLAYNNYQA
For the molecule B2, the “dissolution of 47× CAG RNA clusters by enzyme treatment” value is on record as “not”.

Source of the values: patent US20190218613A1, “METHODS OF DETECTING THE FORMATION OF CELLULAR CLUSTERS OF RNA” (The Regents of the University of California, priority 2017, published 2019).
